Source: PMC11997501 (Molecular Therapy, 2025)

Target: the molecule itself
Assay: western blot after SDS-PAGE of partially denatured samples

B1: murine MLC1 (natural protein, mouse (endogenous in C57BL/6J brain), UniProt Q8VHK5 1-382, looked up)
chain: MTREGQFREELGYDRMPTLERGRQDAGRQDPGSYTPDSKPKDLQLSKRLPPCFSYKTWVFSVLMGSCLLVTSGFSLYLGNVFPSEMDYLRCAAGSCIPSAIVSFAVGRRNVSAIPNFQILFVSTFAVTTTCLIWFGCKLILNPSAININFNLILLLLLELLMAATVIISARSSEEPCKKKKGSISDGSNILDEVTFPARVLKSYSVVEVIAGVSAVLGGVIALNVEEAVSGPHLSVTFFWILVACFPSAIASHVTAECPSKCLVEVLIAISSLTSPLLFTASGYLSFSVMRVVEIFKDYPPAIKSYDVLLLLLLLLLLLQGGLNTGTAIQCVSFKVSARLQAASWDPQSCPQERPAGEVVRGPLKEFDKEKAWRAVVVQMAQ
  stoichiometry N: 2
